# Measured values reported in the nanobody polyreactivity screen of Harvey et al. (2022).
# Assay: yeast display, Sf9 membrane polyspecificity reagent, FACS + sequencing; frameworks hold sequencing errors
# Method in brief: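 Galactose induction of a Saccharomyces cerevisiae BJ5465 synthetic nanobody display library ran 36–48 hours. The cells were then stained for 1 hour at 4 °C with 10% biotinylated, detergent-solubilized Sf9 membrane reagent, pulled down on streptavidin microbeads and FACS-sorted into low and high (top ~1%) gates on expression and reagent-binding fluorescence. Labels for polyreactivity follow the gate of origin.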
row,Sequence,polyreactivity (PSR sort gate)
1,QVQLVESGGGLVQAGGSLRLSCAASGSTFAKYAMGWYRQAPGKERELVAAISSSGTSTYYADSVKGRFTISRDNAKNTVYLQMNSLKPEDTAVYYCAASYRNRYIAFYYWGQGTQVTVSS,low polyreactivity
2,QVQLVESGGGLVQAGGSLRLSCAASGSTFALYAMGWYRQAPGKERELVAAISRSGSSTYYADSVKGRFTMSRDNAKNTVYLQMNSLKPEDTAVYYCATTISGLTSRLYYWGQGTQVTVSS,high polyreactivity
3,QVQLVESGGGLVQAGGSLRLSCAASGSTFALYAMGWYRQAPGKERELVASITLSGGRTYYADSVKGRFTISRDNAKNTVYLQMNSLKPEDTAVDYCNAEDYDWMDYWGQGTQVTVSS,high polyreactivity
4,QVQLVESGGGLVQAGGSLRLSCAASGSTFALYAMGWYRQAPGKERELVAVITSGGSTYYADSVKGRFTISRDNAKNTVYLQMNSLKPEDTAVYYCAARRHVRKGPLGYWGQGTQVTVSS,high polyreactivity
5,QVQLVESGGGLVQAGGSLRLSCAASGSTFANYAMGWYRQAPGKERELVAAISRGGNTYYADSVKVRFTISRDNAKNTVYLQMNSLKPEDTAVYYCAKYTYYSRPGDSDSDYWGQGTQVTVSS,high polyreactivity
6,QVQLVESGGGLVQAGGSLRLSCAASGSTFAPNTMGWYRQAPGKERELVARITSSDGSTTYADSVKGRFTISRDNAKNTVYLQRNSLKPEDTAVYYCAADYGRRWGYDYWGQGTQVTVSS,low polyreactivity
7,QVQLVESGGGLVQAGGSLRLSCAASGSTFARYAMGWYRQAPGKERELVAAISRSGSNTYYADSVKGRFTISRDNAKNTVYLQMNSLKPEDTAVYYCAAVQPGQRTVAYDYWGQGTQVTVSS,high polyreactivity
8,QVQLVESGGGLVQAGGSLRLSCAASGSTFARYAMGWYRQAPGKERELVAAITWRGGSTYYADSVKGRFTISRDNAKNTVYLQMNSLKPEDTAVYYCAADFSRRYGYWGQGTQVTVSS,high polyreactivity
9,QVQLVESGGGLVQAGGSLRLSCAASGSTFARYAMGWYRQAPGKERELVAGISRGGRTYYADSVMGRFTISRDYAKNTVYLQMNSLKPVDTAVYYCAKRYVTLYNSQYNYWGQGTQVTVSS,high polyreactivity
10,QVQLVESGGGLVQAGGSLRLSCAASGSTFARYAMGWYRQAPGKERELVAGISTSGGRTYYADSVKGRFTISRDNAKNTVYLQMTSLKPEDTAVYYCAKALSQTWYDGQYGYWGQGTQVTVSS,low polyreactivity
11,QVQLVESGGGLVQAGGSLRLSCAASGSTFASYAMGWSRQAPGKERELVAAIRWRGGTTYYADSVKGRFTISRDNAKNTVYLQMNSLKPEDTAVYYCNADRYYLYYYWGQGTQVTVSW,low polyreactivity
12,QVQLVESGGGLVQAGGSLRLSCAASGSTFASYAMGWYRQAPGKEREFVAAISRSGGSTYYADSVKGRFTISRDNAKNTVYLQMNSLKPEDTAVYYCAARSPSADEYYYWGQGTQVTVSS,low polyreactivity
13,QVQLVESGGGLVQAGGSLRLSCAASGSTFATNAMGWYRQAPGKERELVATISSDGSTNYADSVKGRFTISRDNAKNTVYLQMNSLKPEDTAVYYCATEVTYPWHVDEGDYWGQGTQVTVSS,low polyreactivity
14,QVQLVESGGGLVQAGGSLRLSCAASGSTFAVYAMGWYRQAPGKERELVAAITWSGGSTYYADSVKGRFTISRDNAKNTVYFQMNSLKPEDTAVYYCAAAGYYSDMDYWGQGTQVTVSS,low polyreactivity
15,QVQLVESGGGLVQAGGSLRLSCAASGSTFAVYAMGWYRQEPGKERELVATITGSGGSTYYADSVKGRFTISRDNAKNTVYLQMNSLKPEDTAVYYCAAEVVAWSLYEDFKTYDYWGQGTQVTVSS,low polyreactivity
16,QVQLVESGGGLVQAGGSLRLSCAASGSTFAVYTMGWYRQAPGKERELVAAISSSGGSTYLRRSVKGRFTISRDNAKNTVYLQMNSLKPEDTAVYYCAAQWYAGHWHVPYEYWGQGTQVTVSS,high polyreactivity

row,Sequence,polyreactivity (PSR sort gate)
1,QVQLVESGGGLVQAGGSLRLSCAASGSTFAWYAMGWYRQAPGKGEFVAGISDSGGRTYYADSVKGRFTISRDNAKNTVYLQMNSLKPEDTAVYYCAAGDHYYRYAYRRGYWGQGTQVTVSS,low polyreactivity
2,QVQLVESGGGLVQAGGSLRLSCAASGSTFAYNAMGCYRQAPGKERELVAAISFTGDSTYYADSVKGRFTISRDNAKYTVYLQMNSLKPEDNRSSPVLSYDYWGQGTQVTVSS,low polyreactivity
3,QVQLVESGGGLVQAGGSLRLSCAASGSTFAYNAMGWYIQAPGKERELVAAISWGDGITYYADSVKGRFSISRDYAKNTVYLQINILKPEDTAVITRDFGYWGQGTQVTVSS,low polyreactivity
4,QVQLVESGGGLVQAGGSLRLSCAASGSTFAYNAMGWYRQAPGKERELVAAISSSGGSTSYADSVKARFTIARDNAKNTVNLQMNSLKPEDPAVYYCAADSYPAYLGFVGFDYWGQGTQVTVSS,low polyreactivity
5,QVQLVESGGGLVQAGGSLRLSCAASGSTFAYNAMGWYRQAPGKERELVAAISSSGTSTYYADSVKGRFTISRDYAKNTVYLQMNSLKTEDTAVYYCAARSAILKSGYLMDYWGQGTQVTVSS,low polyreactivity
6,QVQLVESGGGLVQAGGSLRLSCAASGSTFAYNAMGWYRQAPGKERELVASITVSVGSTYYADSVKGRYTISRDNAKNTVYLQMNRLKPVDTAVYYCAARVTLRSSTYWVPRTGYYYWGQGTQVTVSS,low polyreactivity
7,QVQLVESGGGLVQAGGSLRLSCAASGSTFAYYMGWYRQAPGKERELVASISTYYADSVKGRFTISRDNAKNTVYLQMNSLKPEDTAVYSCAKGYPDPQWGGVLAYDYWGQGTQVTVSS,low polyreactivity
8,QVQLVESGGGLVQAGGSLRLSCAASGSTFAYYVMGWYRQAPGKERELVAAISRGGRTYYADSVKGRFTISRDNAKNTVYLQMNSLKPEDTAVYYCAKPYHQRSAKVDYWGQGTQVTVSS,low polyreactivity
9,QVQLVESGGGLVQAGGSLRLSCAASGSTFAYYVMGWYRQAPGKERELVAAITSSGGRTYYADSVKGRFTISRDNAKNTVYLQMNSQKPEDTAVYYCAKVSQRRVDNSDYDYWGQGTQVTVSS,high polyreactivity
10,QVQLVESGGGLVQAGGSLRLSCAASGSTFCDYAMGWYRQAPGKERELVAAISSGGSTNYADSVKGRFTISRDNAKNTVYLQMNSLKPEDTAVYYCAVGYGGYYYWGQGTQVTVSS,high polyreactivity
11,QVQLVESGGGLVQAGGSLRLSCAASGSTFCGYAMGWSRQAPGKEREFVATISISGGSTYYADSVKGRFTISRDNAKNTVYLQMNSLKPEDTAVYYCNADYYFSWGSIEDYWGQGTQVTVSS,low polyreactivity
12,QVQLVESGGGLVQAGGSLRLSCAASGSTFCRNTMGWYRQAPGKERELVAAINRSASNTYYADSVKGRFTISRDNAKNTVYLQMNSLKQEDPAVYYCSTYSRIFKWEYYYWGQGTQGTVSS,high polyreactivity
13,QVQLVESGGGLVQAGGSLRLSCAASGSTFDANAMGWYRQAPGKERELVAAISYSDGTTYYADSVKGRFTISRDNAKNTVYLQMNSLKPEDTAVYYCAAELFTYDGEEDYWGQGTQVTVSS,high polyreactivity
14,QVQLVESGGGLVQAGGSLRLSCAASGSTFDAYAMGWYRQAPGKERELVAAITWSGGSTYYADSVKGRFTISRDNAKTTVYLQMNSLKPEDTAVYYCAAYYLIFYFEFDYWGQGTQVTVYS,low polyreactivity
15,QVQLVESGGGLVQAGGSLRLSCAASGSTFDDNVMGWYRQAPGKERELVASSTSGGGTNYADSVKGRFTISRDNAKNTVYLQMKSLKPEDTAVYYCAARTQGRRLDYGYWGQGTQVTVSS,low polyreactivity
16,QVQLVESGGGLVQAGGSLRLSCAASGSTFDDYAMGWYRQATGIERELVAAINNGGSTTYADSVKGRFTISRDNAKNTVYLQMNSLKPEDTAVYYCAKDSGAWEYDYWGQGTQVTVSS,low polyreactivity
